Measurements reported in patent US20180127493A1.

Key:
[1] = target: membrane-bound TNFalpha on stably transfected CHO cells (B-220 cells); experiment: FACS, mixed beads with CHO-TNFα (B220) cells, Sample 4
[2] = target: membrane-bound TNFalpha on stably transfected CHO cells (B-220 cells); experiment: FACS, beads with CHO-TNFα (B220) cells, Sample 2
[3] = target: membrane-bound TNFalpha on stably transfected CHO cells (B-220 cells); experiment: FACS, anti-CD19 beads with TNFalpha-transfected CHO cells (FIG. 4, middle panel)

Q: Which results are given for “APC labeled unrelated antibody (anti-CD19), coated on beads”?
A: % bound beads [1]: 0.4%; % bound beads [2]: 0.9%; # Events (cells bound to anti-CD19-APC beads) [3]: 6 events; % Parent [3]: 0.1%; % Total [3]: 0.1%
